# According to the domain aggregation screens of Martell et al. (2025):
# Assay: soluble fraction after stress (log2 fold change); higher = more stays soluble; pooled small domains, quantitative proteomics
# Settings: stress: 75 degC
# 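Note: 20 min heating vs room temperature control held 20 min.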
row,Sequence,soluble fraction (log2)
1,HMRDISTDTSAWTFQDIKRYYDPQDLLTEKQVGQALSLIKGRNLNPLLNEVYIVAYKKKNGGAEFSLIV,-0.224
2,HMRDPLNTGFRQTLKDIVNSLPKNELYSPGVREEYIYPKIGVTSLGMEASMVLNGLISSRRKNIELKEKN,0.369
3,HMRDPVDKDNYLGDWDKNKTYPAGYVMTFGDKNYLALQEVPAGTKPGATDPDPFWVLDTGKTLKD,-0.14
4,HMRDQARQFFIDTWAKFQRHDALTPLEEKTAAIIALHPEYHRVLQNPESFITTDWRPESGDINPFMHL,-2.02
5,HMRDSYEVEGRIASVSPAAGTFVVAGVTVDYTGARFVGGTVAQLAPGVKVEVEGRRLANGTLQAREIEFD,-0.142
6,HMRDSYTFEDIEKLKDSYLQDSEKALEKLISIYEDTNQSLAIRTAALDIITDSQDPTFKLALEKIIS,-0.177
7,HMRDTAKTLLAMEVVGENNKKNLQAFGIQKGDQNYQTAVVVRLMQKALMEGDTSAIRLIGELTGD,-0.0652
8,HMRDTLSKQLLTEEMVLQFIREMREHDPGIGGEKLHAMYLGRFGRDYEYMVGRDKMEMIIAENNLNVR,-0.996
9,HMRDYDFGNLLYKLRIESGYTQKDIADMLGVTDKAVSKWENGIAKPTTNNIKLLSTIYNVSVEELLNG,-1.19
10,HMRDYKTALQEWVQRTPGQPIAYRLVDELGPDHARVFVMEVTVGGQSAGQGRGRTKKEAEQLAARAALEKL,-0.448
11,HMREEIESVYKTLAVTEIPYIARGNSARLGSGIQTVYDFYRMEGMQVSKILGRNGSVLWLELHG,0.0223
12,HMREEMYGLIGFITTSEVTDTFGQMEIKLENEPEMRINVRTNPGESLARGDAAKIISFNNSNGTFLVELTK,-0.921
13,HMREFQVMKQELQEMVHQRLDMSTELSDEAIGDVIDEVIMEKSRNMYISSVTKLTLRQELFNAIR,-1.68
14,HMREGRERRLSQLLSYLRTHHILTRSEYVKLTGLSPTAASSELKTFVTAGHIVRKGIASHSTYRLPH,-1.91
15,HMREKLKEYVHLLFAGTVGKEDMEQEILQNTLDRFDDWVARGFSEEDAYRKAVSGIGDIDALLG,-0.0221
16,HMREPDPELTASIKSMAESNDQSERLVALAQLSEQRAVDPEVADQILLIALLDEDPIIRGQAVYA,0.274
17,HMRERLPFGFAQSKKVVLLSTESDTPKVLSVNWPSLDLYAELKRVIGRAFLLEIVSEEEFQAQVSDAYQRD,-2.47
18,HMREVGVPNLRGLTAEEAQIVLSNAGLNLRTEPIRRVHETITVGRIAEQDPMPDLTIRSQRSVTTWLSSGP,0.328
19,HMREVTVGSAVRLKKGAKTYSGGSLASFVYERNHQVTQLSGDRAVISFKGTVVAAVHKDDLIL,-1.06
20,HMREVVLNRIGSVAVQRATTRTWEEWVVTLDAEGMRGKEHRDVVGHLLRAHELTSWWAQMVSVGYEQSRGQ,-0.18
21,HMREYRITAEEGHPRIDVFLAGRPEIGLSRSRIQALIDEGQVTLNGAMPKARQAVNPGDVIVVRVPDPE,0.0963
22,HMRFEWFDTLTDREKEIFGLIATGFDNQQIADRLQLAEQTVRNNISTIYSKLEVKDRFEIIRLANTI,-1.35
23,HMRFKPLAEILAAVQTRYAGRVLDVELDRDQAGRNVYEVKLLAADGSRREIHIDAVTGKEVSL,-0.56
24,HMRGAIKMAEEQMAGHKKIGSISGTAPTQGELEKKFAMAAAQMGARYYVITGLSNNNYAFGNADIY,-0.669
25,HMRGDEDTGVWPTPMKRAYIDSLLKGYPTGVTMIVKPPGASHTTKWMILDGANRARALRDFMNDEFMI,-0.0871
26,HMRGFTDFEHIEKEYLATIEKLNWPDGVTLPDKLEGEDTGTSFQVGYGDTRASNLWEYSWMK,-0.163

row,Sequence,soluble fraction (log2)
1,HMRGIPEEVADVAIQWVARLDSNEISDADRAAFFAWLDASPINRWAYNDISESWAKLSILNEMGH,-1.87
2,HMRGLFTVYMVGEKASRVGELDEEMVYESRIGDVFALGATSWRIEEITHDRVLVSPAYGQPGRLPFWH,-2.13
3,HMRGLGDLEPVDSLGKIRIDDGHMVLAFGRHKGRHLSEVQAEDPRYIHWLLSPKGIEDVEAREKVKVYLEG,0.0762
4,HMRGLLSQREHDVLDLVARGFSYGEIARLRSISVSTVQTHIKNLYRKLAVSSRTEAVYEAKQMGI,-1.63
5,HMRGLVPEIVGTLEGEIRAGTLAVGQKLPTEAEIMARFDVSRTVVREALSRLQASDLVETRHGIGTFVSAR,-0.647
6,HMRGPDLSKDFHEYISSQWMFFGRNAYQIAEQINKDTQLMSKYGKTTPSGVHYHIKQIQQEMEN,-0.785
7,HMRGPPQVLVDVELEDGRVGQIGVRNGDDATELAETFVRAFRLEQSFVGRLANVIQGKIRELLHSQ,-1.74
8,HMRGSRIFSGDVSPLTLPANSPFFSGYTEFKPGDVYVERSATNIAMWEWKSQPGGYTWVKTADIA,-1.27
9,HMRGYGDRIRILRERAGITIEQLAERLGVAPYFIRRTELSEVYPTKPYIEALADVLNIDASYLARHI,-2.46
10,HMRHYVLKENNGVIAIYKVNQENEAVFKENTQIQVQYLPEVDLINLKKGIYAIGEEKLNSILEDF,-0.667
11,HMRIDSFEDARRRFEYDYLTRLLKLTQGSVTQAAKLAKRNRTEFYKLLQRHGIEAAHFKPTS,-1.53
12,HMRIDVWLAENGFAPSRQKAQDLIAAGRVFQTDPSGRRQKVSKASAAVDPALSPKIEVIPDPE,-0.0608
13,HMRILGIDPGYAITGYSIIDYVGNKFKLIDSGAVLTKAGVSFPLRLTKIYDDLSMIIDEYKPDA,0.0296
14,HMRIPANIAEDIKKLQKKEHHLHHHLGRDPFDDELAKELEWDTEQVSEIRQMIKNPELLEELLEAEREEE,0.0316
15,HMRITEQRRTLAKLFADTPGYLSPKDVYDYMGRFYPGLSFDTVYRNLRLLDELGVLEQVVFEDGVKFK,-0.847
16,HMRIWTISDLYKNVEDKKVSLAVFSEDNDSNKVNVLDINGEEHSVNLLKADLPTLVDLFRKNDVRFAVRSN,-0.116
17,HMRIWTPEMIKEYIISSNGKEPLNSHYYSTNHPSIYAAAERIFGSWGNAINAAGLDYNAIRKYK,-0.488
18,HMRIYFSPSEIGFYHESDKQAYLLAGTWPNDLLEISEKWFLYLLEGQQKGKVITVNDYDQPVLVD,-2.9
19,HMRIYTKDEYLAELSRYLHKLPQDDYESAMAYFREYFEEAGPENEAQAMRDLGTPKEAASEILQNLLH,-0.401
20,HMRKDYTVLYSAVNAEEATEIVSKLQESGVAYQYKDNGDVLVDKKQVDKVRAQLAQEGYPKS,0.0467
21,HMRKIEDVLRLHAQGMSTRRIALATGVGKTTVIEYLRRAAVAGLSWPLPEGLDEEALERRVFPPPP,-2.59
22,HMRKIFPFNPNFITDQRGYFLGMSTSEIDRLHHFRAANKWIQSAQEFQVVTKVSNAWLSEFSPYFNFP,-3.87
23,HMRKKTYEIITDDLRRMIEAGLIRPGEKLGAIDQLAAKYRVGRSTVREALSHLKALGLVESRQGGGTYVTK,0.375
24,HMRKNVAGITPNVYGMGLKDAVYLLENAGYRVKVNGRGNVVRQSINSGTRIIKGQLIILDLD,-3.62
25,HMRKSNADALDGKTGIVKEEIKTGGYGYVGIDGDMWRSISESGEAIPAGTKVVVISHESIILTVKPA,-2.23
26,HMRKTLASTAYDSIKAGIVSGEINNNLLLSENTLAKILNMSRTPIREAIKRLEAESYLKSVDGVGLIVQE,-0.43

row,Sequence,soluble fraction (log2)
1,HMRKTLSQEAYEKIKQNLEDGVYQGYINGRQVARDLDIGFTPVREAFLQLQSEGLIRKEDNVGYFV,-0.107
2,HMRKTYHVDAYQDDKWWVLQVQEMPNAISQVKSLDQADEWIREAINIVSNEPEDSFDVVIIPV,-0.404
3,HMRKVTDTHELSSVVKSVIDQWEEKAAEYRAGKSGLLGFFVGEVMKKTGGAADPEAAKSLLQDRLD,0.0219
4,HMRKYEAVPASVVPAQIQEYVAKSNFPNQYIRKIERNKYTWEIELSNGLEIKFDRQFNVIGFD,-2.59
5,HMRLGQLQSVEEPKFIEVHSGKQGDIGEQTIVEYEIDAKYATGDATINLKLLFRDGLFEIYNFNFSSEALL,0.133
6,HMRLNIRTKNNYSYYTIIKDYTNLNGKRTTTIFEKLGNQQQVEERFGKVNTIENIKKYIEELNNE,-1.65
7,HMRLPAISYSFARKHGVVLRLDGDRPVASLREGADPAILIEVKRHLDGAMGVEKVSEAAFDQLLSTTYA,-1.53
8,HMRLPNGYGSITKLSGKRRKPFMVRITTGYDNEGKQLMSVLGYYATRTEALAVLAEYNKNPYNPI,-3.36
9,HMRLPNHYGSVVKLSGKRRRPFMVRGGVYGYDDRGYPQYVIVGYTETREQGLTMLAEYNRNP,-3.17
10,HMRLPVELTDREVEVLRLLAQAMSNGEIARELYIGEATVKTHVSNVLQKLGARDRVAAVVWAHRYGL,-2.08
11,HMRLSAADLQSYLKGMDYPASRQDLIAHARGHNAPEEAVATLEQFSDRTYRSAADVSVEFGRE,0.254
12,HMRLSPTMVETLIAMLNRNAYPAYENNSRTFASLEERGLIQPDIEGNWSLTDTGHQTALKLLK,0.463
13,HMRLSVRQRMSDVLGALKTQAFVEFTQLFRPQEGRMGVTVTFSAILELLREGLIEIVQSEPFAPIHVRAGA,0.183
14,HMRMDKHLWLSLLRLINEGSAEELQTKKDELLQSLERLRITRGPVRGDVLRVVRLIDEELVSRLHLDQR,-2.58
15,HMRMTKPLPFDLAAFRNEFGFTKSIIMQEVGVSRHIYDNVERTNATPPEFYDDFVSFFQRHGQ,-1.88
16,HMRMTPRQALDDLIREREETYAAVSRLLGRNTAYIQQYIKRGTPARLDQSDIAQLALHFDVPAKLLGGKE,-1.16
17,HMRMTTEQLMSFLKQHFPQVADNFTVRISDEGRLSVEMPVNDKHLRPGGTVSGPSMFALADVAFYLAILQ,-1.56
18,HMRNERDRQLYAAMEKLKAEYREALYLVYFENMSYRDAAAVMAQTEKQISNLVYRGKQSLKTILEQEGF,-2.6
19,HMRNGGHTVYRNNGSLFIVVRDGDKLESVASEFRVSPKKLIKYNDLDIHSNVKTGDMIYIRPKA,-0.423
20,HMRNLYEILGVSKDAPQGEIKSAYRKLAKTYHPDLNPNNEKAAELFKEINQAYEVLSDETKRRHYDQFGEA,0.342
21,HMRNMTDYLTIVRAVYGGLSQRQAATTYHVSRNTVSLLIRHAKNQGWLTVEDLSRADAAAFSPA,-0.393
22,HMRNMVSVLDHIEGIGPKRRQLLYEHYGELEKIKEASVEEMAGLDGMNRPAAEAVYNFFLAQRNL,-0.247
23,HMRNSSLQTDLELRAYVIDGLNHFWTPEEIAGRWSLAHPDRPVSFATIYRHIKRKLLPGIEPKTHLRRRGK,-2.54
24,HMRPEARAASLSDEERKIFDYLAANGEKTIDNISVAVKMSAADILKNITLMSAKGLVYMPSAGRYGVKGN,-0.297
25,HMRPNREKDMADLEKLAPFLLQMLTNYAQMTGDEKPLNAFITRFGYAAQIRDIQDFFMGPWHPA,≥ 1.04
